Data: paper PMC10127277 (2023)

How the values were obtained:
Test in all cases: SPR
RNF130-A1 = biological target: RNF130-A1
ZNRF3-A10 = biological target: ZNRF3-A10
RNF43-A7 = biological target: RNF43-A7

B1: human RNF130 (GOLIATH) extracellular domain (domain or fragment)
chain: DNASQEYYTALINVTVQEPGRGAPLTFRIDRGRYGLDSPKAEVRGQVLAPLPLHGVADHLGCDPQTRFFVPPNIKQWIALLQRGNCTFKEKISRAAFHNAVAVVIYNNKSKEEPVTMTHPGTGDIIAVMITELRGKDILSYLEKNISVQMTIAVGTRMPPKNFSRGS
modifications: biotinylated (BirA ligase)
RNF130-A1
  Kd: 8.2 nM

B2: human ZNRF3 extracellular domain (domain or fragment)
chain: KETAFVEVVLFESSPSGDYTTYTTGLTGRFSRAGATLSAEGEIVQMHPLGLCNNNDEEDLYEYGWVGVVKLEQPELDPKPCLTVLGKAKRAVQRGATAVIFDVSENPEAIDQLNQGSEDPLKRPVVYVKGADAIKLMNIVNKQKVARARIQHRPPRQPTEYFDM
modifications: biotinylated (BirA ligase)
ZNRF3-A10
  Kd: 0.7 nM

B3: human RNF43 extracellular domain (domain or fragment)
chain: GFGRTGLVLAAAVESERSAEQKAIIRVIPLKMDPTGKLNLTLEGVFAGVAEITPAEGKLMQSHPLYLCNASDDDNLEPGFISIVKLESPRRAPRPCLSLASKARMAGERGASAVLFDITEDRAAAEQLQQPLGLTWPVVLIWGNDAEKLMEFVYKNQKAHVRIELKEPPAWPDY
modifications: biotinylated (BirA ligase)
RNF43-A7
  Kd: 3.8 nM
